Data set [1] is described as follows: SDS-PAGE/Western blot of non-boiled culture supernatant; self-association of subunits. In general terms: In western blotting, separated proteins are transferred to a membrane and probed.
The nature of data set [2]: SDS-PAGE/Western blot of non-boiled culture supernatant, 20 uM biotin in medium; self-association of subunits.

B1: streptavidin mutein M4 (T76R, V125R, V55T, L109T), secreted by B. subtilis (protein)
chain: DPSKDSKAQVSAAEAGITGTWYNQLGSTFIVTAGADGALTGTYESAVGNAESRYTLTGRYDSAPATDGSGTALGWRVAWKNNYRNAHSATTWSGQYVGGAEARINTQWTLTSGTTEANAWKSTLRGHDTFTKVKPSAASIDAAKKAGVNNGNPLDAVQQ
As for B1, in data set [1], the % monomer, no additional biotin turned out to be 100%. Also, the % monomer, with additional biotin in data set [2] turned out to be 100%.

These data come from patent US20060246519.
